Laboratory results from patent publication US20220107306A1.

Assays:
[1] = target: Recombinant human PDL1 protein (BioVision/7429-50) (human) (UniProt Q9NZQ7); experiment: sandwich ELISA: PDL1 captured by antibody 28-8, detected with antibody-coated PID particles, before lyophilizing
[2] = target: Recombinant human PDL1 protein (BioVision/7429-50) (human) (UniProt Q9NZQ7); experiment: sandwich ELISA: PDL1 captured by antibody 28-8, detected with antibody-coated PID particles, after lyophilizing
[3] = tested on: rabbit IgG (anti-PD-L1 rabbit monoclonal antibody clone SP142) (Oryctolagus cuniculus); conditions: 5' SH (reduced disulfide), coupled to maleimide-PEG nanoparticle; secondary staining of SP142 rabbit mAb on NCI-H446 section; 0.05 nM aptamer-nanoparticle, PBS 1% BSA, RT 3 h
[4] = target: Recombinant human HER2 protein (E27-11G-10/Signal Chem) (human) (UniProt P04626); experiment: sandwich ELISA: HER2 captured by antibody 6C2, detected with 0.67 nM antibody-coated PID-T particles, before lyophilizing
[5] = target: Recombinant human HER2 protein (E27-11G-10/Signal Chem) (human) (UniProt P04626); experiment: sandwich ELISA: HER2 captured by antibody 6C2, detected with 0.67 nM antibody-coated PID-T particles, after lyophilizing

UniProt Q9NZQ7, sequence (Q9NZQ7 19-238 limits assumed): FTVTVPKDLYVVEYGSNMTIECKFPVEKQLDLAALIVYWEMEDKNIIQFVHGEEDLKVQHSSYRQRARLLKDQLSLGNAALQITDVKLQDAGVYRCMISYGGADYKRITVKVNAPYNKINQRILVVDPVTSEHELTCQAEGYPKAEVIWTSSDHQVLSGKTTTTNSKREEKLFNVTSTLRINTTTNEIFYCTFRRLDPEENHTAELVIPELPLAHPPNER

Row | Fluorescence intensity (PFU), before lyophilizing [1] | Fluorescence intensity (PFU), after lyophilizing [2] | Fluorescence intensity (PFU), before lyophilizing [4] | Fluorescence intensity (PFU), after lyophilizing [5] | Molecule | binding (bright spots per cell) [3]
1 | 17000 PFU | 5500 PFU | – | – | anti-PDL1-recombinant antibody (clone E1L3N/Cell Signaling Technology), bound to the surface of PID-P | –
2 | – | – | – | – | GGGAGAAUUCCGACCAGAAGUUCGAUACGCCGUGGGGUGACGUUGGCUACCCUUUCCUCUCUCCUCCUUCUUCU [rabbit IgG RNA aptamer (74 mer)] | 605
3 | – | – | 41000 PFU | 18000 PFU | anti-HER2-Fab antibody prepared from the anti-HER2-whole antibody (Abcam EP1045Y), bound to the surface of PID-T | –
4 | – | – | 33000 PFU | 15000 PFU | anti-HER2-whole antibody (Abcam, product code EP1045Y), bound to the surface of PID-T | –
5 | – | – | 51000 PFU | 49000 PFU | anti-HER2-VHH antibody (SH group-containing VHH antibody that recognizes HER2 antigen), bound to the surface of PID-T (VHH, C-terminal cysteine of the linker reduced with DTT to a free SH group and coupled to the maleimide group of TAMRA-encapsulating silica nanoparticles (PID-T)) VHH: EVQLVESGGGLVQAGGSLRLSCAASGITFSINTMGWYRQAPGKQRELVALISSIGDTYYADSVKGRFTISRDNAKNTVYLQMNSLKPEDTAVYYCKRFRTAQGTDYWGQGTQVTVSS | –
